Literature values in PMC6829319.

Target: CdiA toxin (Escherichia coli) (UniProt Q0T963)
Sequence (Q0T963 3016-3242): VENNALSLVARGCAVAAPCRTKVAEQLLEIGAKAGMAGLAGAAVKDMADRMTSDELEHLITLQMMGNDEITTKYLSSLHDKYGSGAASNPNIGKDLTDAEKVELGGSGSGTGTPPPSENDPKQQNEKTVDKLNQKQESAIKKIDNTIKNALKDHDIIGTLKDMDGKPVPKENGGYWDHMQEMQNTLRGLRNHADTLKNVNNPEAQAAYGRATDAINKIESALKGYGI

Chain of CysK (P0ABK5 2-323): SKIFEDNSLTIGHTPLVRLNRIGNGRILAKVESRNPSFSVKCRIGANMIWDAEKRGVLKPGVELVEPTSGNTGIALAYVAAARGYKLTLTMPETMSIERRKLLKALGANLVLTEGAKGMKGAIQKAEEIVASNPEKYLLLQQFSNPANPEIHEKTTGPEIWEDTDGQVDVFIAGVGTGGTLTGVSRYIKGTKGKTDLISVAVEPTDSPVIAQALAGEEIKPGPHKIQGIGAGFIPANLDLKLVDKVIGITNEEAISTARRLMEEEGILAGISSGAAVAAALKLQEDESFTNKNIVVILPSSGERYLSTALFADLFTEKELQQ

Substance: CysK (from UniProt P0ABK5)
- Kd: 5 nM
